Results on 40 sequences are retold here after the nanobody polyreactivity screen of Harvey et al. (2022).

This series is described as follows: yeast display, Sf9 membrane polyspecificity reagent, FACS + sequencing; frameworks hold sequencing errors. The essentials:
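Using colony PCR, genes from sorted yeast display clones were amplified, then sequenced on MiSeq at 2 × 250 and filtered by CDR length. The clones had been stained with 10% biotinylated, detergent-solubilized Sf9 membrane reagent for 1 hour at 4 °C and sorted by FACS into low and high (top ~1%) gates on anti-HA and streptavidin fluorescence. Polyreactivity labels come from the gate of origin.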
For “QVQLVESGGGLVQAGGSLRLSCAASGSIFDFYAMGWYRQAPGKERELVAAITWSGDTTYYADSVKGRFTISRDNAKNTVYLQMNSLKPEDTAVYYCAAEGWYWWYGRDYYWGQGTQVTVSS”, the “polyreactivity (PSR sort gate)” value is recorded as “high polyreactivity”.
As for “QVQLVESGGGLVQAGGSLRLSCAASGSIFDFYGMGWYRQAPGKERELVATITGTGGGTYYADSVKGRFTISRDNAKNTVYLQMNSLKPEDTAVYYCAADYPYGYWRGLFYYWGHGTQVTVSS”, the “polyreactivity (PSR sort gate)” value is “low polyreactivity”.
For the sequence “QVQLVESGGGLVQAGGSLRLSCAASGSIFDGNAMGWYRQAPGKERELVASISDSGGSTYYADSVKGRFTISRDNAKNTVYLQMNSLKPEDTAVYYCAKVFVRFYDYYINYWGQGTQVTVSS”, the “polyreactivity (PSR sort gate)” value is recorded as “low polyreactivity”.
Turning to “QVQLVESGGGLVQAGGSLRLSCAASGSIFDGNTMGWSRPAPGKERELVATIRWRGGRTYYADSVKGRFTISRDNAKNTVSLQMNSLKPEDTAVYYCNARWGYSRHRLMGYWGQGTQVTVSS”, the “polyreactivity (PSR sort gate)” value is recorded as “high polyreactivity”.
Turning to “QVQLVESGGGLVQAGGSLRLSCAASGSIFDGYAMGWYIQAPGKDRELVAAISGSGGITYYADSVKGRFTISRDNAKNTVYLPMNSLKPEDTAVYYCAADYSWYAGYGYWGQGTQVTVSS”, the “polyreactivity (PSR sort gate)” value is given as “low polyreactivity”.
Turning to “QVQLVESGGGLVQAGGSLRLSCAASGSIFDGYAMRWYRQAPGKERELVAAIRWGDGITYYADSVKGRFTISRDIAKNTVYLLMNSLKPVDTAVYYCAAVQHGHEPRVQDSYDYWGQGTQVTVSS”, the “polyreactivity (PSR sort gate)” value is reported as “low polyreactivity”.
Consider “QVQLVESGGGLVQAGGSLRLSCAASGSIFDHTNAMGWYRQAPGKERELVAAITSGSSTNYADSVKGRFTISRDNAKNTVYLQMNSLKPEDTAVYYCNADRFHSGIFDYWGQGTQVTVSS”, for which the “polyreactivity (PSR sort gate)” value is recorded as “low polyreactivity”.
With “QVQLVESGGGLVQAGGSLRLSCAASGSIFDHYAMGWYRQAPGKERELVAAITAICDSTYYADSVKGRFTISRDNAKNTVYLEKNSLKAEDTAVYYCAVTYGGSDGGDYWGQGTQGTVSS” the entry was “low polyreactivity”; with “QVQLVESGGGLVQAGGSLRLSCAASGSIFDINAMGWYRQAPGKEREFVAAISWSGGTTYYADSVKGRFTISRDNAKNPVYLQMNSLKPEDTAVYYCAALSYVKRRQSYGYWGLGTQVTVSS”, “high polyreactivity”; with “QVQLVESGGGLVQAGGSLRLSCAASGSIFDINAMGWYRQAPGKERELVAAISYGGGSTSYADSVKGRFTISRDNAKNTVYLQMNSLKPEDTAVYYCAAGYTQSPRDDSWGQGTQVTVSS”, “low polyreactivity”.
For the sequence “QVQLVESGGGLVQAGGSLRLSCAASGSIFDIYAMGGYRQAPGKERELVAGITRDDGSTYYADSVKGRFTISRDNAKNTVYLQMNSLNPEDTAVYYCNRPGDYPDYVPGYYYWGQGTQVTVSS”, the “polyreactivity (PSR sort gate)” value was “low polyreactivity”.
In the case of “QVQLVESGGGLVQAGGSLRLSCAASGSIFDIYAMGWYRQAPGKERELVADITISGGSTYYADSVKGRFTISRDNAKNTVYLQMNSLKPEDTAVYYCKKAYLGYRYDLYDYWGQGTQVTVSS”, the “polyreactivity (PSR sort gate)” value was “low polyreactivity”.
As for “QVQLVESGGGLVQAGGSLRLSCAASGSIFDIYAMGWYRQAPGKERELVASIRRRGGSTYYADSVKGRFTISRDNAKNTVYLQMNSLKPEDTAVYYCNARRVWLRTTGTNWPERGYWGQGTQVTVSS”, the “polyreactivity (PSR sort gate)” value is “high polyreactivity”.
The entry for “QVQLVESGGGLVQAGGSLRLSCAASGSIFDIYGMGWYRQAPGKERELVASISGGAGSTNYADSVKGRFTISRDHAKNTVYLQMNSLKPEDTAVYYCAAEVYVPDYFQHKFDVEYEYWGQGTQVTVSS” is “low polyreactivity”.
Regarding “QVQLVESGGGLVQAGGSLRLSCAASGSIFDNAMGWYRQAPGKERELVAAISLSGSRTYYADSVKGRFTISRDNAKNTVYLQMNSLKPEDTAVYYCNTELVYYSTYDYWGQGTQVTVSS”, the “polyreactivity (PSR sort gate)” value was “low polyreactivity”.
Regarding “QVQLVESGGGLVQAGGSLRLSCAASGSIFDPNAMGWYRQAPGKEREFVAAISYGGGSTTYADSVKGRFTISRDNAKNTVYLQMNSLKPEDTAVYYCAAGFYTYPTWFHPGYLFSAGDYWGQGTQVTVSS”, the “polyreactivity (PSR sort gate)” value is listed as “low polyreactivity”.
In the case of “QVQLVESGGGLVQAGGSLRLSCAASGSIFDPNAMGWYRQAPGKERELVAAITSGGGSTYYADSVKGRFTISRDNAKNTVYLQMNSLNPEDTAVYYCNKVFVLPYKFVAWFDYWGQGTQVTVSS”, the “polyreactivity (PSR sort gate)” value is listed as “low polyreactivity”.
Regarding “QVQLVESGGGLVQAGGSLRLSCAASGSIFDPYAMGWYRQAPGKERELVAAINGGSGSTFYADSVKGRFTISRDNAKNTVYLQMNSLKPEDTAVYYCAAKIWRYSPSYYPEPRGDYWGQGTQVTVSS”, the “polyreactivity (PSR sort gate)” value is listed as “low polyreactivity”.
With “QVQLVESGGGLVQAGGSLRLSCAASGSIFDPYAMGWYRQAPGKERELVAAITYSVGGTTYYADSVKGRFTISRDNAKNTVYLQMNSLKPEDTAVYYCAAEWWGNPFDYWGQGTQVTVSS”, the “polyreactivity (PSR sort gate)” value is “high polyreactivity”.
For the sequence “QVQLVESGGGLVQAGGSLRLSCAASGSIFDPYAMGWYRQAPRKERELVAAIRWSGTSTYYADSVMGRFTISRDNAKNTVYLQMNSLKPEDTAVYYCAARGSKGFSSPFGYWGQGTQLTVSS”, the “polyreactivity (PSR sort gate)” value is reported as “high polyreactivity”.
As for “QVQLVESGGGLVQAGGSLRLSCAASGSIFDQNAMVWYRQAPGKERELVAAITRGGSTKYADSVKGRFTISRDNAKNTVYLQMNSLKPEDTAVYYCARTARRRYQPYEYWGQGTQVTVSS”, the “polyreactivity (PSR sort gate)” value is on record as “low polyreactivity”.
Take “QVQLVESGGGLVQAGGSLRLSCAASGSIFDRYAMGWYRQAPGKERELVAAISKSGGRTYYADSVKGRLTISRDNAKNTVYLQMNSLKPEDTAVYYCAADPLLGYLSHYYWGQGTQVTVSS”: the “polyreactivity (PSR sort gate)” value is reported as “high polyreactivity”.
With “QVQLVESGGGLVQAGGSLRLSCAASGSIFDRYAMGWYRQAPGKERELVAAISTGGSTNYADSVKGRFTISRDNAKNTVYLQMNSLKPEDTAVYYCAARYLYRMYYWGQGTQVTVSS” the entry was “low polyreactivity”; with “QVQLVESGGGLVQAGGSLRLSCAASGSIFDRYAMGWYRQAPGKERELVASIRQRGGSTYYADSVKGRFTISRDNAKNTVYLQMNSLKPEDTAVYYCAARKYPFRQSTYDYWGQGTQVTVSS”, “low polyreactivity”.
On to “QVQLVESGGGLVQAGGSLRLSCAASGSIFDRYGMGLYRQAPGKETELVADITSDGSTNYADSLKGRFTISRDNAKNSVYLQMNSLKREDTAVYYCAVSYTAYYVGYDYWGQGTQVTVSS”, for which the “polyreactivity (PSR sort gate)” value is “low polyreactivity”.
The entry for “QVQLVESGGGLVQAGGSLRLSCAASGSIFDRYGMGWYRQAPGKERELVADITSDGSTNYADSVKGRFTISRDNAKNTVYLQMNSLKPEDTAVYYCAVSYTAYSVGYDYWGQGTQVTVSS” is “low polyreactivity”; for “QVQLVESGGGLVQAGGSLRLSCAASGSIFDRYVMGWYRQAPGKERELVAAITTSGDGTYYADSVKGRFTISRDNAKNTVYLQMNSLKPEDTAVYYCAAVRRSWKYSTSDYWGQGTQVTVSS” it is “low polyreactivity”; for “QVQLVESGGGLVQAGGSLRLSCAASGSIFDSYAMGWYRPEPGKERELVAAISSGGSTNYADSVKGRFTISRDNEKNTVYLQMNSLKPEDTAVYYCAADGSLDAYNYWGQGTQVTVSS” it is “low polyreactivity”.
“QVQLVESGGGLVQAGGSLRLSCAASGSIFDSYAMGWYRQAPGKERELVAAISWSGGSTYYADSVKGRFTISRDTAKNTVYLQMNSLKPDDTAVYYCNTDWADYYYYTDYDYWGQGTQLTVSS”: the “polyreactivity (PSR sort gate)” value is given as “high polyreactivity”.
In the case of “QVQLVESGGGLVQAGGSLRLSCAASGSIFDTNAMGWYIQAPGKEREFVGTITNSGGRTYYADSVKGRFTISRDNAKNTVYLQMNSLKPEDTAVYYCNADVHRFSGNGYRYYYWGQGTQVTVSS”, the “polyreactivity (PSR sort gate)” value is “low polyreactivity”.
In the case of “QVQLVESGGGLVQAGGSLRLSCAASGSIFDTYAMGWYRQAPGKERELVAAITWSGSSTYYADSVKGRFTISRDNAKNTVYLQMNSLKPEDTAVYYCAKDYYVEVTTEYDYWGQGTQVTVSS”, the “polyreactivity (PSR sort gate)” value is recorded as “high polyreactivity”.
Consider “QVQLVESGGGLVQAGGSLRLSCAASGSIFDVNAMGWYRQAPGKERELVAAISQRGTRTYYADSVKGRFTISRDNAKNTVYLQMNSLKPEDTAVYYCNRGGWRQYDSWGQGTQVTVSS”, for which the “polyreactivity (PSR sort gate)” value is “high polyreactivity”.
For the sequence “QVQLVESGGGLVQAGGSLRLSCAASGSIFDVNAMGWYRQAPGKERELVAAISQRGTRTYYADSVKGRFTISRENAKNTVYLQMNSLKPEDTAVYYCNRGGWRQYDSWGQGTQVTVSS”, the “polyreactivity (PSR sort gate)” value is “high polyreactivity”.
With “QVQLVESGGGLVQAGGSLRLSCAASGSIFDVNTMGWYRQAPGKERELVAAITNGDRTNYADSVKGRFTISRDNAKNTVYLQMNSLKPEDTAVYYCAADSVLDRPVLYLWPWYLGDYWGQGTQVTVSS” the entry was “low polyreactivity”.
As to “QVQLVESGGGLVQAGGSLRLSCAASGSIFDVYDMGWYRQAPGKERELVASISDSGSSTYYADSVKGRFTISRDNAKNTVYLQMNSLKPEDTAVYYCAAGYYVDRSIYNYWGQGTQVTVSS”, the “polyreactivity (PSR sort gate)” value is on record as “low polyreactivity”.
Consider “QVQLVESGGGLVQAGGSLRLSCAASGSIFDWNAMGWYRQAPGKERELVAAIRRGGSTYYADSVKGRFTISRDNAKNTVYLQMNSLKPEDTAVYYCATRFYSRYYILDYDYWGQGTQLTVSS”, for which the “polyreactivity (PSR sort gate)” value is on record as “high polyreactivity”.
Regarding “QVQLVESGGGLVQAGGSLRLSCAASGSIFDWNAMGWYRQAPGKERELVAAISGTGGTKYADSVKGRFTISRDNAKNTVYLQMISLKPEDTAVYYCAVGLVPLRDGWHFYYEFDSWGQGTQVTVSS”, the “polyreactivity (PSR sort gate)” value is “low polyreactivity”.
As for “QVQLVESGGGLVQAGGSLRLSCAASGSIFDWNSMGWYRQAPGKERELVATISWDGGSTYYADSVKGRFTISLDNAKNTVYLQMNSLKPEDTAVYYCATVFTGKPAYYARTKYDYWGQGTQVTVSS”, the “polyreactivity (PSR sort gate)” value is “low polyreactivity”.
With “QVQLVESGGGLVQAGGSLRLSCAASGSIFDYNAMGWYRQAPGKERELVAAITYSGGTTYADSVKGRFTISRDNAKNTVYLQMNSLKPEDTAVYYCNADVYRWSGSYTGWDSWHDYWGQGTQVTVSS”, the “polyreactivity (PSR sort gate)” value is on record as “low polyreactivity”.
On to “QVQLVESGGGLVQAGGSLRLSCAASGSIFDYNAMGWYRTAPGKERELVAAITGSGGSTYYADSVKGRFTISRDNAKNTVYLQMNSLTQEDTAVYYCAAPVDYRRYEYEYWGQGTQVTLSS”, for which the “polyreactivity (PSR sort gate)” value is “low polyreactivity”.
